Results published in patent US11833164B2, “Methods of treating Fabry disease in patients having a mutation in the GLA gene” (Amicus Therapeutics, Inc., priority 2019, dated 2023).
Changes are numbered by the printed parent chain. In names and notes the source's numbering stands.

B1: Y152S (protein)
chain: MQLRNPELHLGCALALRFLALVSWDIPGARALDNGLARTPTMGWLHWERFMCNLDCQEEPDSCISEKLFMEMAELMVSEGWKDAGYEYLCIDDCWMAPQRDSEGRLQADPQRFPHGIRQLANYVHSKGLKLGIYADVGNKTCAGFPGSFGYSDIDAQTFADWGVDLLKFDGCYCDSLENLADGYKHMSLALNRTGRSIVYSCEWPLYMWPFQKPNYTEIRQYCNHWRNFADIDDSWKSIKSILDWTSFNQERIVDVAGPGGWNDPDMLVIGNFGLSWNQQVTQMALWAIMAAPLFMSNDLRHISPQAKALLQDKDVIAINQDPLGKQGYQLRQGDNFEVWERPLSGLAWAVAMINRQEIGGPRSYTIAVASLGKGVACNPACFITQLLPVKRKLGFYEWTSRLRSHINPTGTVLLQLENTMQMSLKDLL
B2: D153H (protein)
chain: B1 chain with S152Y, D153H
B3: D153N (protein)
chain: B1 chain with S152Y, D153N
B4: T158A (protein)
chain: B1 chain with S152Y, T158A
B5: T158S (protein)
chain: B1 chain with S152Y, T158S
B6: D153Y (protein)
chain: B1 chain with S152Y, D153Y
B7: D153V (protein)
chain: B1 chain with S152Y, D153V
B8: Q157L (protein)
chain: B1 chain with S152Y, Q157L
B9: D153A (protein)
chain: B1 chain with S152Y, D153A
B10: Q157P (protein)
chain: B1 chain with S152Y, Q157P
B11: F159I (protein)
chain: B1 chain with S152Y, F159I
B12: T158N (protein)
chain: B1 chain with S152Y, T158N
B13: Q157K (protein)
chain: B1 chain with S152Y, Q157K
B14: Q157E (protein)
chain: B1 chain with S152Y, Q157E
B15: T158I (protein)
chain: B1 chain with S152Y, T158I
B16: A156G (protein)
chain: B1 chain with S152Y, A156G

System: mutant form of α-Gal A expressed in HEK-293 cells
Assay: HEK assay (GLP HEK / Migalastat Amenability Assay): α-Gal A activity in lysates of transiently transfected HEK-293 cells incubated with or without 10 μM migalastat
Assay type: cell-based, human
Conditions: 10 μM migalastat versus baseline
In short: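 HEK-293 cells transiently transfected with mutant α-Gal A and incubated with or without 10 μM migalastat; lysate activity given as nmol free 4-MU released per mg protein per hour. Values are mean±SEM.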

| Molecule | Absolute increase (% WT) |
| --- | --- |
| B1 | 19.6 |
| B2 | 20.5 |
| B3 | 24.1 |
| B4 | 28.7 |
| B5 | 19.8 |
| B6 | 23.3 |
| B7 | 25.0 |
| B8 | 60.2 |
| B9 | 21.6 |
| B10 | 40.6 |
| B11 | 24.6 |
| B12 | 12.8 |
| B13 | 55.6 |
| B14 | 24.1 |
| B15 | 18.8 |
| B16 | 16.9 |

Same assay, conditions: 10 μM migalastat α-Gal A activity relative to baseline

| Molecule | Relative increase |
| --- | --- |
| B1 | 1.7 |
| B2 | 1.3 |
| B3 | 1.3 |
| B4 | 1.7 |
| B5 | 1.3 |
| B6 | 1.8 |
| B7 | 2.2 |
| B8 | 5.1 |
| B9 | 1.4 |
| B10 | 5.4 |
| B11 | 1.4 |
| B12 | 3.1 |
| B13 | 3.2 |
| B14 | 1.3 |
| B15 | 1.4 |
| B16 | 1.4 |

Same assay, conditions: 10 μM migalastat, 5 days; percentage of baseline wild-type α-Gal A activity; mean ± SEM

| Molecule | 10 μM migalastat α-Gal A activity (% WT) |
| --- | --- |
| B1 | 46.7 ± 2.6 |
| B2 | 81 ± 2.1 |
| B3 | 89.7 ± 4.4 |
| B4 | 67.3 ± 3.1 |
| B5 | 99.1 ± 5.6 |
| B6 | 52.4 ± 2.8 |
| B7 | 42.4 ± 1.6 |
| B8 | 74.4 ± 4.3 |
| B9 | 81.6 ± 2.3 |
| B10 | 49.6 ± 3.4 |
| B11 | 89.3 ± 4.2 |
| B12 | 18.2 ± 2 |
| B13 | 79.7 ± 5 |
| B14 | 101.5 ± 6.1 |
| B15 | 67.8 ± 3.4 |
| B16 | 63.6 ± 4.3 |

Same assay, conditions: absence of migalastat; percentage of baseline wild-type α-Gal A activity; mean ± SEM

| Molecule | Baseline α-Gal A activity (% WT) |
| --- | --- |
| B1 | 27.1 ± 1.7 |
| B2 | 60.5 ± 2.2 |
| B3 | 65.6 ± 2.8 |
| B4 | 38.6 ± 2.5 |
| B5 | 79.3 ± 4 |
| B6 | 29.1 ± 3.1 |
| B7 | 17.4 ± 2 |
| B8 | 14.3 ± 1.5 |
| B9 | 60.1 ± 2.4 |
| B10 | 9 ± 1 |
| B11 | 64.7 ± 3.5 |
| B12 | 5.4 ± 0.2 |
| B13 | 24.1 ± 1.8 |
| B14 | 77.4 ± 4.1 |
| B15 | 49 ± 2.7 |
| B16 | 46.7 ± 2.7 |

Same assay, conditions: lysates of HEK-293 cells transfected with the mutant form, incubated 5 days in the absence of migalastat; mean ± SEM

| Molecule | Baseline α-Gal A activity [nmol/mg/h] |
| --- | --- |
| B1 | 9917 ± 917 |
| B2 | 23578 ± 1741 |
| B3 | 29386 ± 1518 |
| B4 | 14835 ± 1107 |
| B5 | 31043 ± 2073 |
| B6 | 12609 ± 1299 |
| B7 | 7357 ± 1139 |
| B8 | 5734 ± 700 |
| B9 | 22606 ± 1445 |
| B10 | 3887 ± 487 |
| B11 | 21543 ± 1754 |
| B12 | 1906 ± 106 |
| B13 | 9815 ± 1083 |
| B14 | 28269 ± 1306 |
| B15 | 17360 ± 1159 |
| B16 | 17406 ± 1187 |

Same assay, conditions: lysates of HEK-293 cells transfected with the mutant form, incubated 5 days with 10 μM migalastat; mean ± SEM

| Molecule | 10 μM migalastat α-Gal A activity [nmol/mg/h] |
| --- | --- |
| B1 | 16642 ± 1218 |
| B2 | 31052 ± 1774 |
| B3 | 39338 ± 1551 |
| B4 | 25678 ± 1673 |
| B5 | 39060 ± 2937 |
| B6 | 22535 ± 1174 |
| B7 | 16301 ± 766 |
| B8 | 28942 ± 2013 |
| B9 | 30854 ± 1997 |
| B10 | 20888 ± 1527 |
| B11 | 29402 ± 1960 |
| B12 | 5991 ± 499 |
| B13 | 31331 ± 2428 |
| B14 | 37204 ± 2126 |
| B15 | 24097 ± 1695 |
| B16 | 23415 ± 1710 |
